Where two headings read alike, the source gives them in different places.

Data set [1] concerns ATCC 10231 C. albicans cells. Kind of data set: cell growth inhibition assay in M-H liquid medium (turbidity, filament sedimentation, microscopy). The note with it: for spores under microscope: 2 ul treated medium on a slide, Ph-CA1 10 ug/ml, amphotericin B 2 ug/ml, FIG. 5. Format: cell-based, Candida albicans. From the text:
FIG. 4 depicts the inhibition effects of Ph-CA against the growth of ATCC 10231 C. albicans cells in M-H liquid medium. The amount of sedimentary fungal filaments at the bottom of flasks indicated the inhibition effects of treatment agents. (A) Control, (B) fluconazole, (C) amphotericin B, (D) Ph-SA, (E) Ph-CA2 produced by pCHCCA2 plasmid and (F) Ph-CA1.
FIG. 5 depicts the inhibition effects of Ph-CA against the growth of C. albicans cells in liquid medium. The amount of spores and filaments of ATCC 10231 C. albicans cells indicated the inhibition effects. (A) Control, (B) fluconazole, (C) amphotericin B, (D) Ph-SA, (E) Ph-CA2 (F) Ph-CA1. X400.
In vitro cell growth inhibition assays were performed in 100 ml Klett flasks containing 10 ml of M-H medium which were monitored turbimetrically with a BioRad 550 microplate reader at OD595 nm every 60 min. The filament (mycelium) precipitation at the bottom of flask was counted with a digital photo-recorder every 6 hrs. Cells were inoculated to an initial cell density of about 2.5×10^5 CFU/ml and shaken at 200 rpm on an orbital shaker at 35° C. Sedimentary fungal filaments appeared in about 36 hrs growing.
Ph-CA1 and Ph-CA2 were added at the start of the culture. The same amount of borate stock solution (50 mM borate, PH9.0), Ph-SA (pheromonicin constructed by colicin Ia and staphylococcal pheromone AgrD1)(10 ug/ml) and several antibiotics preparations (2 ug/ml amphotericin B, 6 ug/ml fluconazole) were used as controls. All assays were expressed in turbidometric absorbance units measured at 595 nm and pictures of the filament sedimentation at the bottom of the flask were taken.

For data set [2], the system named is Magnaporthe grisea. Format: in vivo, rice (seed, gangyou 725). The note with it: for Grades of impaired leaves 0 (number of leaves) / Grades of impaired leaves 1 (number of leaves) / Grades of impaired leaves 3 (number of leaves) / Grades of impaired leaves 5 (number of leaves) / Incident rate / Infected index / Protecting efficacy: seven days after treatment, sprayed twice: tricyclazole 0.5 and 1 mg/ml, Ph-CA1 1 and 2 ug/ml, 200 leaves.

Data set [3] concerns Magnaporthe grisea. The format is in vivo, rice (seed, gangyou 725). To be noted: sprayed once at head stage: tricyclazole 1 mg/ml, Ph-CA1 2 ug/ml.
Data set [4] deals with C. albicans (ATCC 10231). As to the kind of experiment: systemic candidiasis in mice, survival. The format is in vivo, KungMing mice. How it is done: KungMing mice, half male and half female, weighing 18-22 g were injected intraperitoneally with 0.5 ml of C. albicans (ATCC 10231), 10^8 CFU/ml. One hour after C. albicans injection, mice were injected intraperitoneally with 0.9% saline […] alone as control (n=10) (C), or with amphotericin B (n=10, 1 ug/gm/day) (B), or with Ph-CA1 (n=10, 5 ug/gm/day) (A) daily for 14 days. The number of surviving animals was determined every 24 hours (FIG. 11).
KungMing mice, half male and half female, weighing 18-22 g were injected intraperitoneally with 0.7 ml of C. albicans (ATCC 10231), 10^8 CFU/ml. One hour after C. albicans injection, mice were injected in the tail vein with 0.9% saline alone as control (n=10) (C), or with amphotericin B (n=10, 1 ug/gm) (B), or with Ph-CA1 (n=10, 5 ug/gm) (A). The mice were then injected intraperitoneally with 0.9% saline alone, or with amphotericin B (n=10, 1 ug/gm), or with Ph-CA1 (n=10, 5 ug/gm) each day. The number of surviving animals was determined every 24 hours (FIG. 12).

Data set [5] has as its system Cryptococcus neoformans, Aspergillus flavus, Magnaporthe grisea and Fusarium moniforme cells. Format: cell-based. To be noted: on a molar basis.
Data set [6] concerns Fusarium moniforme (ACCC 30133 strain). Format: cell-based.
The test system of data set [7] is ATCC 10231 C. albicans cells. As to the kind of experiment: fluorescent imaging with FITC/propidium iodide. The format is cell-based, Candida albicans. To be noted: 10 ug/ml, 24 hrs; 50 nM FITC/600 nM propidium iodide. How it is done:
FIG. 6 depicts the fluorescent imaging of ATCC 10231 C. albicans cells treated by Ph-CA1 and stained with 50 nM FITC/600 nM propidium iodide. […] X400.

For data set [8], the system named is Aspergillus flavus (Huaxi 30255 strain). Format: cell-based.
A short description of data set [9]: repeated intraperitoneal dosing in mice, bodyweight and histology. Format: in vivo, KungMing mice. The note with it: 200 ug/mouse/day intraperitoneally for 20 days. The protocol:
KungMing mice (n=10), half male and half female, weighing 18-22 g were injected intraperitoneally with Ph-CA1 (200 ug/mouse/day) for 20 days. The bodyweight of all mice was increased.

Data set [10] deals with Cryptococcus neoformans (Huaxi 30168 strain). The format is cell-based.
The subject of data set [11] is Candida albicans (ATCC 10231). Format: cell-based.
Data set [12] concerns Magnaporthe grisea (ACCC 30320 strain). Format: cell-based. To be noted: PDA solid medium; 100 ul Ph-CA1 25 and 50 ug/ml; FIG. 9.

Regarding `OC(Cn1cncn1)(Cn1cncn1)c1ccc(F)cc1F` [Fluconazole, fluconazole, reference compound], the “effect on growth of C. albicans” value in data set [1] (6 ug/ml, M-H liquid medium) is reported as “no effect”.

With `Cc1cccc2sc3nncn3c12` [Tricyclazole, tricyclazole, reference compound], in data set [2], the “Grades of impaired leaves 0 (number of leaves)” value came to 172, the “Grades of impaired leaves 1 (number of leaves)” value came out at 10, the “Grades of impaired leaves 3 (number of leaves)” value was 12 and the “Grades of impaired leaves 5 (number of leaves)” value is recorded as 6. In [2], this molecule registered an Incident rate of 14, an Infected index of 4.22 and a Protecting efficacy of 75.83. For the same molecule, in data set [3], the Damage rate amounted to 1.63%, the “Grades of impaired ears 0 (number of ears)” value is 184, the “Grades of impaired ears 1 (number of ears)” value is reported as 16 and the “Grades of impaired ears 3 (number of ears)” value came to 9. Further, in data set [3], the “Grades of impaired ears 5 (number of ears)” value stood at 2, the “Grades of impaired ears 7 (number of ears)” value is 2, the “Grades of impaired ears 9 (number of ears)” value was found to be 0 and the Impaired ears rate was found to be 13.62%. The Infected index in data set [3] stood at 3.5.

Turning to `C[C@@H]1[C@H](O)[C@@H](C)/C=C/C=C/C=C/C=C/C=C/C=C/C=C/[C@H](O[C@@H]2O[C@H](C)[C@@H](O)[C@H](N)[C@@H]2O)C[C@@H]2O[C@](O)(C[C@@H](O)C[C@@H](O)[C@H](O)CC[C@@H](O)C[C@@H](O)CC(=O)O[C@H]1C)C[C@H](O)[C@H]2C(=O)O` [amphotericin B, reference compound], the “effect on growth of C. albicans” value in data set [1] (2 ug/ml, M-H liquid medium) was “completely inhibited”. The spores under microscope entry in data set [1] is “scarcely observed”.

B1: Ph-CA2: fusion peptide of colicin Ia with Candida albicans alpha-mating pheromone n-terminal to the colicin Ia; SEQ ID NO:7; from plasmid pCHCCA2 (protein)
chain: GFRLYNFGYFEPGKDAINFTTEFLKSVSEKYGAKAEQLAREMAGQAKGKKIRNVEEALKTYEKYRADINKKINAKDRAAIAAALESVKLSDISSNLNRFSRGLGYAGKFTSLADWITEFGKAVRTENWRPLFVKTETIIAGNAATALVALVFSILTGSALGIIGYGLLMAVTGALIDESLVEKANKFWGI
modifications: Amino acid sequence of Ph-CA2
notes: fusion peptide of colicin Ia with Candida albicans alpha-mating pheromone n-terminal to the colicin Ia; from plasmid pCHCCA2
For B1, the “inhibition effect relative to that of Ph-CA1” value in data set [1] (10 ug/ml, M-H liquid medium) is listed as “about 30%”. Also, in data set [1], the “antifungal effect on Candida albicans in vitro” value is “almost had no effect”.

B2: Ph-CA1: fusion peptide of colicin Ia with Candida albicans alpha-mating pheromone c-terminal to the colicin Ia; SEQ ID NO:5; from plasmid pCHCCA1 (protein)
chain: DAINFTTEFLKSVSEKYGAKAEQLAREMAGQAKGKKIRNVEEALKTYEKYRADINKKINAKDRAAIAAALESVKLSDISSNLNRFSRGLGYAGKFTSLADWITEFGKAVRTENWRPLFVKTETIIAGNAATALVALVFSILTGSALGIIGYGLLMAVTGALIDESLVEKANKFWGIGFRLYNFGYFEPGK
modifications: Amino acid sequence of Ph-CA1
notes: fusion peptide of colicin Ia with Candida albicans alpha-mating pheromone c-terminal to the colicin Ia; from plasmid pCHCCA1
With B2, the “antifungal effect on Candida albicans in vivo” value in data set [4] (in vivo) is reported as “definite antifungal effect”. Also, the “in vivo antifungal activity against systemic candidiasis relative to amphotericin B” value in data set [4] (on a molar basis, Ph-CA1 5 ug/gm, amphotericin B 1 ug/gm) was “at least twenty times greater”. Also, in data set [5], the “antifungal effects relative to known antifungal antibiotics” value was “one hundred to one thousand times greater”. The “effect on growth of C. albicans” value in data set [1] (10 ug/ml, M-H liquid medium) is “completely inhibited”. In data set [1], the spores under microscope result is reported as “scarcely observed” and the “antifungal effect on Candida albicans in vitro” value is given as “definite antifungal effect”. The “inhibitory effect relative to amphotericin B” value in data set [1] (on a molar basis, Ph-CA1 70 kDa, amphotericin B about 0.9 kDa) is on record as “approximately ten times greater”. Moreover, in data set [6], the antifungal effects result was “definite antifungal effects”. The “total effects against rice blast disease relative to tricyclazole” value in data set [2] (concentration and molar basis taken together, both in vivo protecting assays (Tables I and II)) is listed as 10^4 to 10^5 times. Further, in data set [2] (on a molar basis, both in vivo protecting assays (Tables I and II)), the “protecting effects relative to tricyclazole” value is “three hundred times greater”. In addition, in data set [2], the “Grades of impaired leaves 0 (number of leaves)” value stood at 67, the “Grades of impaired leaves 1 (number of leaves)” value amounted to 12, the “Grades of impaired leaves 3 (number of leaves)” value turned out to be 13 and the “Grades of impaired leaves 5 (number of leaves)” value worked out at 8. In [2], this molecule showed an Incident rate of 16.5, an Infected index of 5.05 and a Protecting efficacy of 70.94. Further, the “cell membrane damage (propidium iodide entry, cells stained red)” value in data set [7] is reported as “cells became red”. Also, in [8], the antifungal effects entry is given as “definite antifungal effects”. In addition, the bodyweight entry in data set [9] is “increased”. Further, the “microscopic findings in livers, kidneys or spleens” value in data set [9] (hematoxylin and eosin) is listed as “no microscopic evidence of necrosis or inflammation”. In addition, the antifungal effects entry in [10] is “definite antifungal effects”. In data set [11], the inhibition zone entry is “inhibition-zone”. Besides, the antifungal effects result in data set [12] was “definite antifungal effects”. Also, in [3], the Damage rate is on record as 0.53%, the “Grades of impaired ears 0 (number of ears)” value stood at 218, the “Grades of impaired ears 1 (number of ears)” value is reported as 19 and the “Grades of impaired ears 3 (number of ears)” value stood at 5. Besides, in data set [3], the “Grades of impaired ears 5 (number of ears)” value is on record as 0, the “Grades of impaired ears 7 (number of ears)” value came out at 0, the “Grades of impaired ears 9 (number of ears)” value came to 0 and the Impaired ears rate is recorded as 9.92%. In data set [3], this molecule yielded an Infected index of 1.56.
